Data as given in publication PMC3098871, “High Throughput Determination of TGFβ1/SMAD3 Targets in A549 Lung Epithelial Cells”.

Molecular target: SMAD3 (UniProt P84022 1-425)
Test: EMSA; poly(dI-dC) 0.25 mg/mL; two complexes, partially abolished by unlabeled probe (40 and 200 ng); 20% glycerol, 5 mM MgCl2, 2.5 mM EDTA, 25 mM DTT, 200 mM NaCl, 50 mM Tris-HCl pH 7.6, 0.25 mg/mL poly(dI-dC), 20 min at room temperature; 6% native PAGE
Details: protein: commercial; label: 5'-Cy5 on strand 1; blunt

Sequence of SMAD3 (P84022 whole entry): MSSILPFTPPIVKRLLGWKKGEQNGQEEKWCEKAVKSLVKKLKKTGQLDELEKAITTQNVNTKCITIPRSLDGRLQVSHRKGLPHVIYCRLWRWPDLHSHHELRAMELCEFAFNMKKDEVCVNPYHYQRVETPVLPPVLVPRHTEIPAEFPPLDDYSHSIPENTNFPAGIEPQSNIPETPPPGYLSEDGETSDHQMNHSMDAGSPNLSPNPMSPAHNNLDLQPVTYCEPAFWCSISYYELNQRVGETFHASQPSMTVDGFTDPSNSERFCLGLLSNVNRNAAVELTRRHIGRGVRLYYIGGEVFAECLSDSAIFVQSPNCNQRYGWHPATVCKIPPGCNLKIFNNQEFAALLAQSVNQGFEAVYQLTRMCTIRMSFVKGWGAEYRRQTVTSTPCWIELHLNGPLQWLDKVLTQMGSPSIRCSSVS

B1: FOXA2 promoter probe (-42 to -19) (dsDNA)
DNA 1: GATTGCTGGTCGTTTGTTGTGGCT
DNA 2: AGCCACAACAAACGACCAGCAATC
B1: binds.
